Measured values as given in article PMC12658140 (Nature Communications, 2025).

Assays:
[1] = biological target: T1, H3N2 A/Hong Kong/1/1968 HA protein (Influenza A virus H3N2 A/Hong …, UniProt Q91MA7, strain); assay: ELISA; conditions: both partners purified
T1 construct: source: bought: SinoBiological

[2] = biological target: H3N2 A/Moscow/10/1999 HA on infected MDCK-SIAT1 cells (Influenza A virus H3N2 A/Moscow/10/1999, UniProt I6SI59, strain); assay: flow cytometry on cells; conditions: one partner purified
[3] = biological target: H14N5 A/mallard/Astrakhan/263/1982 HA protein (Influenza A virus H14N5 …, UniProt P26136, strain); assay: ELISA; conditions: both partners purified

B1: 240-14 IgA 2F02 IgG (antibody, V domains shown)
VH: EVQLLESGGGLVQPGGSLRLSCAASGFTFSTYAMSWVRQAPGKGLEWVSTISGSGGSTYDAESVKGRFTISRDNSKNTLYLQMNSLRAEDTAVYYCAKEGGDFWSGYYANWFDPWGQGTLVTVSS
VL: QSALTQPRSVSGSPGQSVTISCTGTRSDVGGYNYVSWYQQHPGKAPKVIIYDVKKRPSGVPDRFSGSKSGNTASLTISGLQAEDEADYYCSAFAGSHTLFGGGTKVTVL
notes: source: Expi293F, transfected, purified (CaptureSelect CH1-XL beads); copies: 2 + 2
[1]
  binding result: binds
[2]
  binding result: binds

B2: AG2-G02 IgG (antibody, V domains shown)
VH: VQLVQSGAEMKKPGASVKVSCKASGYTFSAYYIHWVRQAPGQGLEWMGRINTDSGGTNFAQQFEGRVTMTRDTSISTAYMELSSLRSDDTAVYYCARGYDFWLGSYRAGGWFDPWGQGTLVTVSS
VL: not shown
notes: copies: 2 + 2
[3]
  binding result: no binding (tested: 10 μg mL^−1)
[2]
  binding result: binds
